{"source": "patent US20230321287A1", "about": "“RADIOLABELLED GRPR-ANTAGONIST FOR USE AS THERAGNOSTIC” (NOVARTIS AG, priority 2019, published 2023)", "experiment": "clinical", "conditions": "human, Relative radiotracer uptake", "from_the_text": "The primary objective was to characterize preliminary targeting properties of [68Ga] NeoB in patients with malignancies known to overexpress GRPR. The primary efficacy endpoints were: • Number and location of tumor lesions detected by [68Ga]-NeoBOMB1 overall and for each tumor type • Calculation of the ratio tumor/background standard uptake value (SUV) and %injected dose per gram of tissue (ID/g) and calculation of absorbed dose (mGy/MBq) in tumor overall and for each tumor type.\nAccordingly, highest relative tracer uptake following administration of a bombesin antagonist is expected in pancreas, kidney, and liver (Roivainen et al, 2013).", "data": [{"smiles": "CC(C)CC(CC(C)C)NC(=O)[C@H](Cc1cnc[nH]1)NC(=O)CNC(=O)[C@@H](NC(=O)[C@H](C)NC(=O)[C@H](Cc1c[nH]c2ccccc12)NC(=O)[C@H](CCC(N)=O)NC(=O)[C@@H](Cc1ccccc1)NC(=O)COCC(=O)Nc1ccc(CNC(=O)CN2CCN(CC(=O)O)CCN(CC(=O)O)CCN(CC(=O)O)CC2)cc1)C(C)C", "note": "[[68Ga]-NeoB, metal not drawn]", "values": [{"measurement": "tissue uptake at 0.25 h", "setting": "Liver, patient FR01-008, 15 min/38.6 min actual", "result": 0.00794, "unit": "%ID/g"}, {"measurement": "tissue uptake at 0.25 h", "setting": "alveolar-interstitial (lungs), total radioactivity, patient FR01-009, 15 min/17.8 min actual", "result": 0.00124, "unit": "%ID/g"}, {"measurement": "tissue uptake at 1 h", "setting": "alveolar-interstitial (lungs), total radioactivity, patient FR01-009, 60 min/60.7 min actual", "result": 0.000884, "unit": "%ID/g"}, {"measurement": "tissue uptake at 2 h", "setting": "alveolar-interstitial (lungs), total radioactivity, patient FR01-009, 120 min/123.9 min actual", "result": 0.000591, "unit": "%ID/g"}, {"measurement": "tissue uptake at 4 h", "setting": "alveolar-interstitial (lungs), total radioactivity, patient FR01-009, 240 min/207.9 min actual", "result": 0.000386, "unit": "%ID/g"}, {"measurement": "tissue uptake at 0.25 h", "setting": "heart wall, total radioactivity, patient FR01-009, 15 min/17.8 min actual", "result": 0.0034, "unit": "%ID/g"}, {"measurement": "tissue uptake at 1 h", "setting": "heart wall, total radioactivity, patient FR01-009, 60 min/60.7 min actual", "result": 0.00207, "unit": "%ID/g"}, {"measurement": "tissue uptake at 2 h", "setting": "heart wall, total radioactivity, patient FR01-009, 120 min/123.9 min actual", "result": 0.00142, "unit": "%ID/g"}, {"measurement": "tissue uptake at 4 h", "setting": "heart wall, total radioactivity, patient FR01-009, 240 min/207.9 min actual", "result": 0.000928, "unit": "%ID/g"}, {"measurement": "tissue uptake at 0.25 h", "setting": "kidneys, total radioactivity, patient FR01-009, 15 min/17.8 min actual", "result": 0.0048, "unit": "%ID/g"}, {"measurement": "tissue uptake at 1 h", "setting": "kidneys, total radioactivity, patient FR01-009, 60 min/60.7 min actual", "result": 0.0038, "unit": "%ID/g"}, {"measurement": "tissue uptake at 2 h", "setting": "kidneys, total radioactivity, patient FR01-009, 120 min/123.9 min actual", "result": 0.00505, "unit": "%ID/g"}, {"measurement": "tissue uptake at 4 h", "setting": "kidneys, total radioactivity, patient FR01-009, 240 min/207.9 min actual", "result": 0.00278, "unit": "%ID/g"}, {"measurement": "tissue uptake at 1 h", "setting": "liver, total radioactivity, patient FR01-008, 60 min/62.6 min actual", "result": 0.00296, "unit": "%ID/g"}, {"measurement": "tissue uptake at 2 h", "setting": "liver, total radioactivity, patient FR01-008, 120 min/123.2 min actual", "result": 0.00197, "unit": "%ID/g"}, {"measurement": "tissue uptake at 4 h", "setting": "liver, total radioactivity, patient FR01-008, 240 min/221.1 min actual", "result": 0.00162, "unit": "%ID/g"}, {"measurement": "tissue uptake at 0.25 h", "setting": "liver, total radioactivity, patient FR01-009, 15 min/17.8 min actual", "result": 0.00866, "unit": "%ID/g"}, {"measurement": "tissue uptake at 1 h", "setting": "liver, total radioactivity, patient FR01-009, 60 min/60.7 min actual", "result": 0.00564, "unit": "%ID/g"}, {"measurement": "tissue uptake at 2 h", "setting": "liver, total radioactivity, patient FR01-009, 120 min/123.9 min actual", "result": 0.00428, "unit": "%ID/g"}, {"measurement": "tissue uptake at 4 h", "setting": "liver, total radioactivity, patient FR01-009, 240 min/207.9 min actual", "result": 0.00317, "unit": "%ID/g"}, {"measurement": "tissue uptake at 0.25 h", "setting": "pancreas, total radioactivity, patient FR01-008, 15 min/38.6 min actual", "result": 0.0471, "unit": "%ID/g"}, {"measurement": "tissue uptake at 1 h", "setting": "pancreas, total radioactivity, patient FR01-008, 60 min/62.6 min actual", "result": 0.0484, "unit": "%ID/g"}, {"measurement": "tissue uptake at 2 h", "setting": "pancreas, total radioactivity, patient FR01-008, 120 min/123.2 min actual", "result": 0.0545, "unit": "%ID/g"}, {"measurement": "tissue uptake at 4 h", "setting": "pancreas, total radioactivity, patient FR01-008, 240 min/221.1 min actual", "result": 0.0628, "unit": "%ID/g"}, {"measurement": "tissue uptake at 0.25 h", "setting": "pancreas, total radioactivity, patient FR01-009, 15 min/17.8 min actual", "result": 0.0215, "unit": "%ID/g"}, {"measurement": "tissue uptake at 1 h", "setting": "pancreas, total radioactivity, patient FR01-009, 60 min/60.7 min actual", "result": 0.0291, "unit": "%ID/g"}, {"measurement": "tissue uptake at 2 h", "setting": "pancreas, total radioactivity, patient FR01-009, 120 min/123.9 min actual", "result": 0.0345, "unit": "%ID/g"}, {"measurement": "tissue uptake at 4 h", "setting": "pancreas, total radioactivity, patient FR01-009, 240 min/207.9 min actual", "result": 0.0374, "unit": "%ID/g"}, {"measurement": "tissue uptake at 0.25 h", "setting": "red (active) marrow, total radioactivity, patient FR01-008, 15 min/38.6 min actual", "result": 0.00331, "unit": "%ID/g"}, {"measurement": "tissue uptake at 1 h", "setting": "red (active) marrow, total radioactivity, patient FR01-008, 60 min/62.6 min actual", "result": 0.00116, "unit": "%ID/g"}, {"measurement": "tissue uptake at 2 h", "setting": "red (active) marrow, total radioactivity, patient FR01-008, 120 min/123.2 min actual", "result": 0.000916, "unit": "%ID/g"}, {"measurement": "tissue uptake at 4 h", "setting": "red (active) marrow, total radioactivity, patient FR01-008, 240 min/221.1 min actual", "result": 0.000346, "unit": "%ID/g"}, {"measurement": "tissue uptake at 0.25 h", "setting": "red (active) marrow, total radioactivity, patient FR01-009, 15 min/17.8 min actual", "result": 0.00186, "unit": "%ID/g"}, {"measurement": "tissue uptake at 1 h", "setting": "red (active) marrow, total radioactivity, patient FR01-009, 60 min/60.7 min actual", "result": 0.00136, "unit": "%ID/g"}, {"measurement": "tissue uptake at 2 h", "setting": "red (active) marrow, total radioactivity, patient FR01-009, 120 min/123.9 min actual", "result": 0.000998, "unit": "%ID/g"}, {"measurement": "tissue uptake at 4 h", "setting": "red (active) marrow, total radioactivity, patient FR01-009, 240 min/207.9 min actual", "result": 0.000722, "unit": "%ID/g"}, {"measurement": "tissue uptake at 0.25 h", "setting": "spleen, total radioactivity, patient FR01-008, 15 min/38.6 min actual", "result": 0.00409, "unit": "%ID/g"}, {"measurement": "tissue uptake at 1 h", "setting": "spleen, total radioactivity, patient FR01-008, 60 min/62.6 min actual", "result": 0.00211, "unit": "%ID/g"}, {"measurement": "tissue uptake at 2 h", "setting": "spleen, total radioactivity, patient FR01-008, 120 min/123.2 min actual", "result": 0.00141, "unit": "%ID/g"}, {"measurement": "tissue uptake at 0.25 h", "setting": "spleen, total radioactivity, patient FR01-009, 15 min/17.8 min actual", "result": 0.00338, "unit": "%ID/g"}, {"measurement": "tissue uptake at 1 h", "setting": "spleen, total radioactivity, patient FR01-009, 60 min/60.7 min actual", "result": 0.00256, "unit": "%ID/g"}, {"measurement": "tissue uptake at 2 h", "setting": "spleen, total radioactivity, patient FR01-009, 120 min/123.9 min actual", "result": 0.00191, "unit": "%ID/g"}, {"measurement": "tissue uptake at 4 h", "setting": "spleen, total radioactivity, patient FR01-009, 240 min/207.9 min actual", "result": 0.00145, "unit": "%ID/g"}, {"measurement": "tissue uptake at 0.25 h", "setting": "tumor lesion T1-lungL, total radioactivity, patient FR01-009, 15 min/17.8 min actual", "result": 0.00367, "unit": "%ID/g"}, {"measurement": "tissue uptake at 1 h", "setting": "tumor lesion T1-lungL, total radioactivity, patient FR01-009, 60 min/60.7 min actual", "result": 0.00455, "unit": "%ID/g"}, {"measurement": "tissue uptake at 2 h", "setting": "tumor lesion T1-lungL, total radioactivity, patient FR01-009, 120 min/123.9 min actual", "result": 0.00481, "unit": "%ID/g"}, {"measurement": "tissue uptake at 4 h", "setting": "tumor lesion T1-lungL, total radioactivity, patient FR01-009, 240 min/207.9 min actual", "result": 0.00385, "unit": "%ID/g"}, {"measurement": "tissue uptake at 0.25 h", "setting": "tumor lesion T2-lungR, total radioactivity, patient FR01-009, 15 min/17.8 min actual", "result": 0.00466, "unit": "%ID/g"}, {"measurement": "tissue uptake at 1 h", "setting": "tumor lesion T2-lungR, total radioactivity, patient FR01-009, 60 min/60.7 min actual", "result": 0.00463, "unit": "%ID/g"}, {"measurement": "tissue uptake at 2 h", "setting": "tumor lesion T2-lungR, total radioactivity, patient FR01-009, 120 min/123.9 min actual", "result": 0.00377, "unit": "%ID/g"}, {"measurement": "tissue uptake at 4 h", "setting": "tumor lesion T2-lungR, total radioactivity, patient FR01-009, 240 min/207.9 min actual", "result": 0.00248, "unit": "%ID/g"}, {"measurement": "tissue uptake at 0.25 h", "setting": "tumor lesion T3-liverL, total radioactivity, patient FR01-009, 15 min/17.8 min actual", "result": 0.0135, "unit": "%ID/g"}, {"measurement": "tissue uptake at 1 h", "setting": "tumor lesion T3-liverL, total radioactivity, patient FR01-009, 60 min/60.7 min actual", "result": 0.018, "unit": "%ID/g"}, {"measurement": "tissue uptake at 2 h", "setting": "tumor lesion T3-liverL, total radioactivity, patient FR01-009, 120 min/123.9 min actual", "result": 0.00984, "unit": "%ID/g"}]}]}
